Laboratory results from publication doi:10.1101/2021.08.02.454737.

Assays:
[1] = biological target: T1, UPF1 RM-3F (RNA mutant, UPF1R RM-3F) (human, UniProt Q92900-2 1-1118, N524A;K547A;R843A); test: MST
T1 sequence: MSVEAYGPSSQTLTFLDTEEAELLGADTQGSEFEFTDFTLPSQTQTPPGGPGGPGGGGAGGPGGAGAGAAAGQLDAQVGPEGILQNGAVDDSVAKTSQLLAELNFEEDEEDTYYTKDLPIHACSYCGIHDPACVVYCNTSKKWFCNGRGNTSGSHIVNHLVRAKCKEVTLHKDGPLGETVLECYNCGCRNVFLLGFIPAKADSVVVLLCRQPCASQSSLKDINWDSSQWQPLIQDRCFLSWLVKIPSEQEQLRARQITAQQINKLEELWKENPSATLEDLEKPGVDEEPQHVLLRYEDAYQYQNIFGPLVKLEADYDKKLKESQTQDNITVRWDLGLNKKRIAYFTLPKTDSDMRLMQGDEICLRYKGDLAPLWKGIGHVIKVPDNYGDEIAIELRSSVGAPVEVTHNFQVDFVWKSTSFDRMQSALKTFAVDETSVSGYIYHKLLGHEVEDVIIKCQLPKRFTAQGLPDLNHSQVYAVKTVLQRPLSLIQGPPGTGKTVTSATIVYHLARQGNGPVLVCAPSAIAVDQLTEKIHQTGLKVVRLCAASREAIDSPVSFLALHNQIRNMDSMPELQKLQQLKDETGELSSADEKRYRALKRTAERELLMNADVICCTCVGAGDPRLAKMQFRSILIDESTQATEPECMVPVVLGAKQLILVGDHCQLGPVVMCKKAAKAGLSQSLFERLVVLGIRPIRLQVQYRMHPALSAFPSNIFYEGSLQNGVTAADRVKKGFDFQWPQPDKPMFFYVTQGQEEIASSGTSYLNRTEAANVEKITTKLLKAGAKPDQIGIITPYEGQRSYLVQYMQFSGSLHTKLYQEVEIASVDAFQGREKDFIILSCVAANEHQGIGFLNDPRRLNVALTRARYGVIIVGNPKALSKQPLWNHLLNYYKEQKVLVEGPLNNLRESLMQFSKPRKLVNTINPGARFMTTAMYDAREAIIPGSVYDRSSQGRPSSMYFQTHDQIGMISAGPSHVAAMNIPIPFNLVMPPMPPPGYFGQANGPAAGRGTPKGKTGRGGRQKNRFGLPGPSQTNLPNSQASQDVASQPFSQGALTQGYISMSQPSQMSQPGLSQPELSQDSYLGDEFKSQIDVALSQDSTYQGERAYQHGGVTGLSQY

UPF1-3F (wt, UPF1R-3F) = biological target: T2, UPF1-3F (wt, UPF1R-3F) (human, UniProt Q92900-2 1-1118); test: MST
T2 sequence: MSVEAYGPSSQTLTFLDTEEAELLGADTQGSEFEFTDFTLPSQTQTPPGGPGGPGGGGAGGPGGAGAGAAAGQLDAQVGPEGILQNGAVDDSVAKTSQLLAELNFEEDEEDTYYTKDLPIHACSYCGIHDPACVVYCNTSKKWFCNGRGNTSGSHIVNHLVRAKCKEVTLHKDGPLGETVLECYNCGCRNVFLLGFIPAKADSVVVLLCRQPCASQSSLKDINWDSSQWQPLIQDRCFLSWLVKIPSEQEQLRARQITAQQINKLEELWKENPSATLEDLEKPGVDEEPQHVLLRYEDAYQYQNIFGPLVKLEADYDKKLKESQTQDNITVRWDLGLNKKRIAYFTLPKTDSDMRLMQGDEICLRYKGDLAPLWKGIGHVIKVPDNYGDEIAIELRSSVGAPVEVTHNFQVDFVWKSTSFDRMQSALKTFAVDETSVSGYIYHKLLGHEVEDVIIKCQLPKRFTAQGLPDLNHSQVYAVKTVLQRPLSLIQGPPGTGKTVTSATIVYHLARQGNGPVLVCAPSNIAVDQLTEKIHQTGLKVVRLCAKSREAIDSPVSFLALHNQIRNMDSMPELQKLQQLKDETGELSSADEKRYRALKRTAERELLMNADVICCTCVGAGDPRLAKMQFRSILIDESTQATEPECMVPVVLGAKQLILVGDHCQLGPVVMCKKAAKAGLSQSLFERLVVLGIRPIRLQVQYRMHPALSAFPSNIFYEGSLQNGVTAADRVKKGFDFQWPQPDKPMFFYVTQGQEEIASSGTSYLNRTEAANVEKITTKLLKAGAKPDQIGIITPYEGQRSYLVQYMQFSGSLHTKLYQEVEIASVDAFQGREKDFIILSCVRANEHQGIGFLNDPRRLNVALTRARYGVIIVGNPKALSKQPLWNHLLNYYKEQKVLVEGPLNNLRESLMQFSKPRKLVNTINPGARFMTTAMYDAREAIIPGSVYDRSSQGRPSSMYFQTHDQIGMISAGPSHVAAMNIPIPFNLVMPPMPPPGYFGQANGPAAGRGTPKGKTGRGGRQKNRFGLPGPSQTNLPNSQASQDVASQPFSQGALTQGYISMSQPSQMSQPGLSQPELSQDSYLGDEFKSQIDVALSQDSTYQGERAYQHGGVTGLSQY

Binder: UUUUUUUUUUUUUUUUUUUUUUUUUUUUUU (ssRNA) [U30 RNA]
- binding result [1]: no binding
- Kd (UPF1-3F (wt, UPF1R-3F)): 25.3 ± 4.43 nM
